Assays:
α-chymotrypsin [1] = experiment: enzyme inhibition kinetics (reciprocal plots); α-chymotrypsin with substrate N-benzoyl-tyrosine ethyl ester (BTEE, 0-2 mM), 50 mM Tris-HCl pH 7.8, 25 °C; read at 253 nm; Spi1C at 0, 22.7, 45.4 and 68.1 nmol/L in the Lineweaver-Burk plots
trypsin [2] = experiment: enzyme inhibition kinetics (reciprocal plots); trypsin with substrate H-D-Phe-Pip-Arg-pNA (S-2238, 0-2 mM), 50 mM Tris-HCl pH 7.8, 25 °C; Spi1C pre-incubated with the enzyme for 15 min; pNA read at 405 nm; Spi1C at 0, 22.7, 45.4 and 68.1 nmol/L in the Lineweaver-Burk plots
α-chymotrypsin [3] = target: α-chymotrypsin
trypsin [4] = target: trypsin

Ki (α-chymotrypsin [1]): 17.9 nM
Ki (trypsin [2]): 15.2 nM
specific inhibitor activity (inhibition of α-chymotrypsin activity) (α-chymotrypsin [3]): 3640 U/mg
specific inhibitor activity (inhibition of trypsin activity) (trypsin [4]): 6940 U/mg
Substance: recombinant Spi1C protein (natural protein)

— publication PMC3225930
